How the values were obtained:
[1] = molecular target: platelet-derived growth factor-BB (PDGF-BB) (human) (UniProt P01127); assay: surface plasmon resonance
[2] = molecular target: platelet-derived growth factor-BB (PDGF-BB) (human) (UniProt P01127); assay: equilibrium binding
[3] = molecular target: transforming growth factor-β1 (TGF-β1) (human) (UniProt P01137); assay: equilibrium or kinetic binding, not said which
[4] = molecular target: transforming growth factor-β1 (TGF-β1) (human) (UniProt P01137); assay: equilibrium binding; equilibrium binding
Target sequence in this assay (P01137 279-390 limits assumed): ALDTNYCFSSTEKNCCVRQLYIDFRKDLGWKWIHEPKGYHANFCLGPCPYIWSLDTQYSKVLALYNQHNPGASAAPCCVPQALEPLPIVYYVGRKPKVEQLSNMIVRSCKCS

[5] = molecular target: platelet-derived growth factor-BB (PDGF-BB) (human) (UniProt P01127); assay: surface plasmon resonance, kinetic
Target sequence in this assay (P01127 82-190 limits assumed): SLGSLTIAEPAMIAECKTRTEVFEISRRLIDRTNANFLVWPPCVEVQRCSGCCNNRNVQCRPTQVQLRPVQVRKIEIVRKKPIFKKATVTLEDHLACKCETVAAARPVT

[6] = molecular target: transforming growth factor-β1 (TGF-β1) (human) (UniProt P01137); assay: surface plasmon resonance, kinetic; kinetic, plasmon surface resonance
Target sequence in this assay (P01137 279-390 limits assumed): as the sequence (P01137 279-390 limits assumed) above

[7] = molecular target: transforming growth factor-β1 (TGF-β1) (human) (UniProt P01137); assay: method not restated in the sentence (paragraph: plasmon resonance modulation)
Target sequence in this assay (P01137 279-390 limits assumed): as above

[8] = molecular target: platelet-derived growth factor-BB (PDGF-BB) (human) (UniProt P01127); assay: as above
Target sequence in this assay (P01127 82-190 limits assumed): as the sequence (P01127 82-190 limits assumed) above

[9] = molecular target: vascular endothelial growth factor A (VEGF-A) (human) (UniProt P15692); assay: plasmon resonance modulation; plasmon resonance
Chain of vascular endothelial growth factor A (VEGF-A) (human) (P15692 other isoform, or with tags, fused parts or gaps limits assumed): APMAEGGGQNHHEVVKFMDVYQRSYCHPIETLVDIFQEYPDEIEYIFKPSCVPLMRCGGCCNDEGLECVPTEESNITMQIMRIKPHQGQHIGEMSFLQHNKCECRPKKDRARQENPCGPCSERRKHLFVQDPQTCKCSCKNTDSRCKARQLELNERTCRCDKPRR

[10] = molecular target: transforming growth factor-β1 (TGF-β1) (human) (UniProt P01137); assay: plasmon resonance modulation; plasmon resonance
Target sequence in this assay (P01137 279-390 limits assumed): as the sequence (P01137 279-390 limits assumed) above

[11] = molecular target: platelet-derived growth factor-BB (PDGF-BB) (human) (UniProt P01127); assay: plasmon resonance modulation; plasmon resonance
Target sequence in this assay (P01127 82-190 limits assumed): as the sequence (P01127 82-190 limits assumed) above

[12] = molecular target: vascular endothelial growth factor A (VEGF-A) (human) (UniProt P15692); assay: method not restated in the sentence
[13] = molecular target: transforming growth factor-β1 (TGF-β1) (human) (UniProt P01137); assay: method not restated in the sentence
Target sequence in this assay (P01137 279-390 limits assumed): as the sequence (P01137 279-390 limits assumed) above

[14] = molecular target: platelet-derived growth factor-BB (PDGF-BB) (human) (UniProt P01127); assay: method not restated in the sentence
Target sequence in this assay (P01127 82-190 limits assumed): as the sequence (P01127 82-190 limits assumed) above

[15] = molecular target: transforming growth factor-β1 (TGF-β1) (human) (UniProt P01137); assay: equilibrium binding to FN adsorbed to a surface or coupled to agarose beads
[16] = molecular target: platelet-derived growth factor-BB (PDGF-BB) (human) (UniProt P01127); assay: as above
[17] = molecular target: transforming growth factor-β1 (TGF-β1) (human) (UniProt P01137); assay: radiolabeled GF binding to intact FN, non linear regression; radiolabeled GF, intact FN
[18] = molecular target: platelet-derived growth factor-BB (PDGF-BB) (human) (UniProt P01127); assay: as above

Chain of FNIII12-V15 (HV), composite heparinII-binding and variably-spliced IIICS domains of fibronectin (P02751 other isoform, or with tags, fused parts or gaps limits assumed): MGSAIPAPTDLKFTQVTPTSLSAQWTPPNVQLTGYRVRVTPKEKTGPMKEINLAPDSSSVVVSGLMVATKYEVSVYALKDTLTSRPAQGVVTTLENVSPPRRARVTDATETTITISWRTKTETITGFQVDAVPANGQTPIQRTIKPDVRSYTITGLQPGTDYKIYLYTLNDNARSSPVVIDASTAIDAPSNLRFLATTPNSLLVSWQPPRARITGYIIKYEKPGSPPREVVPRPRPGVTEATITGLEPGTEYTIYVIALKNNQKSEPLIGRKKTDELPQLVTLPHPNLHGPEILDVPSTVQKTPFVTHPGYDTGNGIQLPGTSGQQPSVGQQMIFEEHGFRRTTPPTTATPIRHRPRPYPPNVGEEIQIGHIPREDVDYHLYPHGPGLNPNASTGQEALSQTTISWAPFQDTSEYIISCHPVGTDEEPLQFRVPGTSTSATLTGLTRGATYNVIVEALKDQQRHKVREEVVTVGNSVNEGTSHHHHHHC
Chain of FNIII12-14 (P02751 other isoform, or with tags, fused parts or gaps limits assumed): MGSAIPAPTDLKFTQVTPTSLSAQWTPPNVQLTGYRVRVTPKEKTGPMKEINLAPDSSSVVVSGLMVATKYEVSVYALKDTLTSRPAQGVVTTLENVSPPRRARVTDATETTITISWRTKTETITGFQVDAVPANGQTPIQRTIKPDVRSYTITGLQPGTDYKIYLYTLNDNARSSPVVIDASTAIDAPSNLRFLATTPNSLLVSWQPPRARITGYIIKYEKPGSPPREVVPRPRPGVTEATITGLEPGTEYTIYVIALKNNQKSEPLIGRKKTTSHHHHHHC
Chain of FNIII12-15 (H), heparinII-binding domain of fibronectin (P02751 other isoform, or with tags, fused parts or gaps limits assumed): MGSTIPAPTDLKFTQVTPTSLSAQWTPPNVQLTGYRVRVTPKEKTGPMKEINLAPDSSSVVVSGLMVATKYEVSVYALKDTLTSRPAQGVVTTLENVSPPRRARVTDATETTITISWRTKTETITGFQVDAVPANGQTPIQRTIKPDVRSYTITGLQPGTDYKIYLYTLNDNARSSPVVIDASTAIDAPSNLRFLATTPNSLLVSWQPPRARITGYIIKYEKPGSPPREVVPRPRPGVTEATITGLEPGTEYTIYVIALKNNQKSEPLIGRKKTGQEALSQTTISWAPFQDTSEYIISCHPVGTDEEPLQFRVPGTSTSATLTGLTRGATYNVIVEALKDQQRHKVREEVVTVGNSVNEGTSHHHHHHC
Chain of IIICS, variably-spliced domain of fibronectin (P02751 other isoform, or with tags, fused parts or gaps limits assumed): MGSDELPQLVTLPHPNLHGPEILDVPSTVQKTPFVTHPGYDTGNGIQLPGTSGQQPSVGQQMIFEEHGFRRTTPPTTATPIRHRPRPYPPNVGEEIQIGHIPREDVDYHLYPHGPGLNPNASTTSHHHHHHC
Chain of FNIII1-7 (P02751 other isoform, or with tags, fused parts or gaps limits assumed): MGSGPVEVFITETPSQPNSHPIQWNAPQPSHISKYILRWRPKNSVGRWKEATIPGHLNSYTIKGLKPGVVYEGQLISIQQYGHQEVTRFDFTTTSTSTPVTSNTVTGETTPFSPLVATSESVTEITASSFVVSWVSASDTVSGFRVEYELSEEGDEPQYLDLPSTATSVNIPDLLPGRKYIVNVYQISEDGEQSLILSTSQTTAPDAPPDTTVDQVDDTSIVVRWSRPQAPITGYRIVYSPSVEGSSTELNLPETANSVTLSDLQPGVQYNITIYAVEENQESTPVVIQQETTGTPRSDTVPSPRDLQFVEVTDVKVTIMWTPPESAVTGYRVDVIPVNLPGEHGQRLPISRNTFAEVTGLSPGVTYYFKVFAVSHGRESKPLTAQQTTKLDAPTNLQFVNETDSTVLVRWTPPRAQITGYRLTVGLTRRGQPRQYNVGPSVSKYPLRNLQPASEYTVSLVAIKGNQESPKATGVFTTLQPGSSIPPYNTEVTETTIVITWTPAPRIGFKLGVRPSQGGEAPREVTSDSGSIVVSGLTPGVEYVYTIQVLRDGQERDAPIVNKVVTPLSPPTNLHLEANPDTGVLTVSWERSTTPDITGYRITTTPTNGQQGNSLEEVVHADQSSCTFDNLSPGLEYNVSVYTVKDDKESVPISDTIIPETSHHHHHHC
Chain of FNIII12-13 (P02751 other isoform, or with tags, fused parts or gaps limits assumed): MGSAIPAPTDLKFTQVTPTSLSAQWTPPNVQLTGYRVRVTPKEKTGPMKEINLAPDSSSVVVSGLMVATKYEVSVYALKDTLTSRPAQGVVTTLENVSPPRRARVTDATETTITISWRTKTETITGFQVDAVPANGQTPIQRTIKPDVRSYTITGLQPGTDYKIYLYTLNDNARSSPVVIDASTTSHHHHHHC

Which results are given for FNIII1 (from UniProt P02751 610-702)?
Kd [1]: 370 nM; Kd [2]: 32 nM; Kd [3]: 6.2 nM

With FNIII1-2 (from UniProt P02751 610-812) as the substance, how does the Kd [1] read?
The Kd was 9.1 nM.

What about the Kd [2] of the same substance?
Its Kd is 37 nM.

What does the source list for FNIII1-7 (from UniProt P02751 610-1266)?
Kd [4]: 17 nM; Kd [5]: 100 nM; Kd [6]: 18 nM; Kd [2]: 75 nM

How did the Kd [2] turn out when “FNIII12-13 (from UniProt P02751 1812-1992)” was run?
The Kd was 75 nM.

What does the source list for “FNIII12-14 (from UniProt P02751 1812-2082)”?
Kd [7]: 7.6 nM; Kd [8]: 55 nM; Kd [2]: 35 nM; Kd [3]: 7.6 nM

Which results are given for “FNIII12-15 (H), heparinII-binding domain of fibronectin (from UniProt P02751 1631-1987)”?
Kd [7]: 16 nM; Kd [8]: 6.8 nM; Kd [2]: 6.8 nM; Kd [3]: 16 nM

What does the source list for “FNIII12-V15 (HV), composite heparinII-binding and variably-spliced IIICS domains of fibronectin (from UniProt P02751 1812-2288)”?
Kd [9]: 0.6 nM; Kd [10]: 2.5 nM; Kd [11]: 17 nM; Kd [4]: 97 nM; Kd [5]: 17 nM; Kd [6]: 25 nM; Kd [2]: 21 nM

Which results are given for “IIICS, variably-spliced domain of fibronectin (from UniProt P02751 2083-2202)”?
Kd [12]: 100 nM; Kd [13]: 100 nM; Kd [14]: 100 nM; Kd [2]: 350 nM; Kd [3]: 74 nM

“intact human plasma fibronectin (FN) (from UniProt P02751 32-2477)” was tested. Which Kd [15] did it give?
Its Kd is 53 nM.

And the Kd [16]?
The Kd was 49 nM.

What about the Kd [17] of the same substance?
The Kd was 53 nM.

What about the Kd [18] of the same substance?
Its Kd is 49 nM.

From patent US8759300
